B1: GpH7-B3 S298W / GpL16-k0 (antibody, human IgG1)
heavy: not shown
light: DIVMTQSPLSLPVTPGEPASISCQASESLVHSNRNTYLHWYLQKPGQSPQLLIYKVSNRFSGVPDRFSGSGSGTDFTLKISRVEAEDVGVYYCSQNTHVPPTFGQGTKVEIE
notes: B3 variant: anti-glypican-3 IgG1 (constant region B3 = G1d with K439E) with one substitution, EU numbering; also called B3 variant S298W; copies: 2 + 2
B2: GpH7-B3 D270V / GpL16-k0 (antibody, human IgG1)
heavy: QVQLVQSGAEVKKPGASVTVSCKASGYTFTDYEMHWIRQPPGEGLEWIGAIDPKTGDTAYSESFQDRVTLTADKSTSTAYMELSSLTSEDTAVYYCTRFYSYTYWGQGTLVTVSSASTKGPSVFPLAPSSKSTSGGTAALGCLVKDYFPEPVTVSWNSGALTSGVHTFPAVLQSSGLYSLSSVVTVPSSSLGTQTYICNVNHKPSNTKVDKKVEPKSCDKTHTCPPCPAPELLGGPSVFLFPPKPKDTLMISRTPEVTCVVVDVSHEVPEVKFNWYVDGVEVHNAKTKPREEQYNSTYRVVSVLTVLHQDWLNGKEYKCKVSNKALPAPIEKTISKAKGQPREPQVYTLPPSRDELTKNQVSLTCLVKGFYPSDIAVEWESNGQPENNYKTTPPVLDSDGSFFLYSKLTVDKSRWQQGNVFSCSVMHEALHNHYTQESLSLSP
light: DIVMTQSPLSLPVTPGEPASISCQASESLVHSNRNTYLHWYLQKPGQSPQLLIYKVSNRFSGVPDRFSGSGSGTDFTLKISRVEAEDVGVYYCSQNTHVPPTFGQGTKVEIE
notes: B3 variant: anti-glypican-3 IgG1 (constant region B3 = G1d with K439E) with one substitution, EU numbering; also called B3 variant D270V; copies: 2 + 2
B3: GpH7-B3 P271H / GpL16-k0 (antibody, human IgG1)
heavy: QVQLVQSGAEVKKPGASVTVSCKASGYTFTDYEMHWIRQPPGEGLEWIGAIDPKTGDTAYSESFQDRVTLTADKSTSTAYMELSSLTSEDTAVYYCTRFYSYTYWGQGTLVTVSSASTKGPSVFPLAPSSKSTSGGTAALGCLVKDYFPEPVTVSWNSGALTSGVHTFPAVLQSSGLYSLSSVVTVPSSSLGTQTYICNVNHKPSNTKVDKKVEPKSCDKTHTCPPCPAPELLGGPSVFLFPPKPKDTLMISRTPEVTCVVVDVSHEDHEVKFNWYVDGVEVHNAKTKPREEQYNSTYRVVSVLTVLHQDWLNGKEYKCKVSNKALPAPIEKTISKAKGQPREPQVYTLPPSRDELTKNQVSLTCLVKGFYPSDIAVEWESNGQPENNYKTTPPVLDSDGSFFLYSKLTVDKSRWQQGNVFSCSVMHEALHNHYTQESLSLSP
light: DIVMTQSPLSLPVTPGEPASISCQASESLVHSNRNTYLHWYLQKPGQSPQLLIYKVSNRFSGVPDRFSGSGSGTDFTLKISRVEAEDVGVYYCSQNTHVPPTFGQGTKVEIE
notes: B3 variant: anti-glypican-3 IgG1 (constant region B3 = G1d with K439E) with one substitution, EU numbering; also called B3 variant P271H; copies: 2 + 2
B4: GpH7-B3 Q295W / GpL16-k0 (antibody, human IgG1)
heavy: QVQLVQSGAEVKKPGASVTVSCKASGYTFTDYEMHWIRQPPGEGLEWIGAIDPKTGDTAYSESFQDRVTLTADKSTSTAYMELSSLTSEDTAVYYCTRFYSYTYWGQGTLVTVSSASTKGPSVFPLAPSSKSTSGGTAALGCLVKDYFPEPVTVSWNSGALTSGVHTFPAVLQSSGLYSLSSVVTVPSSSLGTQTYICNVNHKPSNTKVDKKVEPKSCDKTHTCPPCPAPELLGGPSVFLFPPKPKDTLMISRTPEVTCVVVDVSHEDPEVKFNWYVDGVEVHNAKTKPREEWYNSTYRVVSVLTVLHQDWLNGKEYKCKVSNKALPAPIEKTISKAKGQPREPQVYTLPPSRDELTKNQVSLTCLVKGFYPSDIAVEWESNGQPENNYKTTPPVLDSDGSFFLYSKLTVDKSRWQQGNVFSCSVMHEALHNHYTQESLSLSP
light: DIVMTQSPLSLPVTPGEPASISCQASESLVHSNRNTYLHWYLQKPGQSPQLLIYKVSNRFSGVPDRFSGSGSGTDFTLKISRVEAEDVGVYYCSQNTHVPPTFGQGTKVEIE
notes: B3 variant: anti-glypican-3 IgG1 (constant region B3 = G1d with K439E) with one substitution, EU numbering; also called B3 variant Q295W; copies: 2 + 2
B5: GpH7-B3 Y296G / GpL16-k0 (antibody, human IgG1)
heavy: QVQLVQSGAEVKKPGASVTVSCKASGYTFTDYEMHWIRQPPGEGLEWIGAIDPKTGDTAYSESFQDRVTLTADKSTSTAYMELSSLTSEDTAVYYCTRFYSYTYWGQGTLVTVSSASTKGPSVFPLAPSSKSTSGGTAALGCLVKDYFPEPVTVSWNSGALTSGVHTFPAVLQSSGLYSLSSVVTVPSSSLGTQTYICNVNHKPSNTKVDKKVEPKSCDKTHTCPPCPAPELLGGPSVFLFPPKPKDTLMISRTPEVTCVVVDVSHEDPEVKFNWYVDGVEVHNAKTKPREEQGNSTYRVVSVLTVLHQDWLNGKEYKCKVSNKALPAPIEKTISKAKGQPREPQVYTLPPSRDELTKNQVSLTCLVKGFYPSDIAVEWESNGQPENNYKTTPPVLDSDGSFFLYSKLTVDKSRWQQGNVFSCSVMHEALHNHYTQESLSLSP
light: DIVMTQSPLSLPVTPGEPASISCQASESLVHSNRNTYLHWYLQKPGQSPQLLIYKVSNRFSGVPDRFSGSGSGTDFTLKISRVEAEDVGVYYCSQNTHVPPTFGQGTKVEIE
notes: B3 variant: anti-glypican-3 IgG1 (constant region B3 = G1d with K439E) with one substitution, EU numbering; also called B3 variant Y296G; copies: 2 + 2
B6: GpH7-B3 S298R / GpL16-k0 (antibody, human IgG1)
heavy: not shown
light: DIVMTQSPLSLPVTPGEPASISCQASESLVHSNRNTYLHWYLQKPGQSPQLLIYKVSNRFSGVPDRFSGSGSGTDFTLKISRVEAEDVGVYYCSQNTHVPPTFGQGTKVEIE
notes: B3 variant: anti-glypican-3 IgG1 (constant region B3 = G1d with K439E) with one substitution, EU numbering; also called B3 variant S298R; copies: 2 + 2
B7: GpH7-B3 Y300P / GpL16-k0 (antibody, human IgG1)
heavy: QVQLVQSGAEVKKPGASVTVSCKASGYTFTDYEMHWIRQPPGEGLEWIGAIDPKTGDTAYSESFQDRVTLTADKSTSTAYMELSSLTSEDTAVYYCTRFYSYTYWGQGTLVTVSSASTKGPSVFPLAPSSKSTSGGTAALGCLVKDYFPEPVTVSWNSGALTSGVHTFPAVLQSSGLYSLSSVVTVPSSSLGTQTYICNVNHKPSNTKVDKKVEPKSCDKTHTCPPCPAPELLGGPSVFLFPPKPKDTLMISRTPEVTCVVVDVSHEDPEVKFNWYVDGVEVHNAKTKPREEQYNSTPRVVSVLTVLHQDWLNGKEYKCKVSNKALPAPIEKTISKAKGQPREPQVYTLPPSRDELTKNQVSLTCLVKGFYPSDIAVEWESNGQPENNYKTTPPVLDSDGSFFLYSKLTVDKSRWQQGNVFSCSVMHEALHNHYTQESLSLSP
light: DIVMTQSPLSLPVTPGEPASISCQASESLVHSNRNTYLHWYLQKPGQSPQLLIYKVSNRFSGVPDRFSGSGSGTDFTLKISRVEAEDVGVYYCSQNTHVPPTFGQGTKVEIE
notes: B3 variant: anti-glypican-3 IgG1 (constant region B3 = G1d with K439E) with one substitution, EU numbering; also called B3 variant Y300P; copies: 2 + 2
B8: GpH7-B3 P271S / GpL16-k0 (antibody, human IgG1)
heavy: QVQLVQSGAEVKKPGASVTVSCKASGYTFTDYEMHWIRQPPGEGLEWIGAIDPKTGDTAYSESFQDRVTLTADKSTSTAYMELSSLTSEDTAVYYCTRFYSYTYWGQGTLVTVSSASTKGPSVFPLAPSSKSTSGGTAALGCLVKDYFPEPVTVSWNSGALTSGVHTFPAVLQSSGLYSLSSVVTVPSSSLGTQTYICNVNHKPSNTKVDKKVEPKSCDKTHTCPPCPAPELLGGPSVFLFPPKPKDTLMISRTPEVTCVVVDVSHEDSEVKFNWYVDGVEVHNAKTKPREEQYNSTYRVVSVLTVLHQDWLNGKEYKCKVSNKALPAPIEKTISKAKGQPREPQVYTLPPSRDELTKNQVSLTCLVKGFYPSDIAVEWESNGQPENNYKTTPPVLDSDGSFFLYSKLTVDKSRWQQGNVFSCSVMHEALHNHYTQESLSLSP
light: DIVMTQSPLSLPVTPGEPASISCQASESLVHSNRNTYLHWYLQKPGQSPQLLIYKVSNRFSGVPDRFSGSGSGTDFTLKISRVEAEDVGVYYCSQNTHVPPTFGQGTKVEIE
notes: B3 variant: anti-glypican-3 IgG1 (constant region B3 = G1d with K439E) with one substitution, EU numbering; also called B3 variant P271S; copies: 2 + 2
B9: GpH7-B3 S298G / GpL16-k0 (antibody, human IgG1)
heavy: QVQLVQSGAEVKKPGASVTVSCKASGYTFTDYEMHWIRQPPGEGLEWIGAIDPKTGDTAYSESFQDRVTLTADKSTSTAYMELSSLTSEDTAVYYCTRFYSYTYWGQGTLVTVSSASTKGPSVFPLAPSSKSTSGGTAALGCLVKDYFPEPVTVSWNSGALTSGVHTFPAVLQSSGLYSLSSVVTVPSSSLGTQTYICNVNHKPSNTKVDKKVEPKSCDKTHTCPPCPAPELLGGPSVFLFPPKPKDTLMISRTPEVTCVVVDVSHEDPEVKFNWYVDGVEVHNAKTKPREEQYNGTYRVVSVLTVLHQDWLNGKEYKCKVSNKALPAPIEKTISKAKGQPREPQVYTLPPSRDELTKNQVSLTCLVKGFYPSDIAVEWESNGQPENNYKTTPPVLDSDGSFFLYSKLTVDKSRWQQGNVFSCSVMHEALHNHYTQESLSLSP
light: DIVMTQSPLSLPVTPGEPASISCQASESLVHSNRNTYLHWYLQKPGQSPQLLIYKVSNRFSGVPDRFSGSGSGTDFTLKISRVEAEDVGVYYCSQNTHVPPTFGQGTKVEIE
notes: B3 variant: anti-glypican-3 IgG1 (constant region B3 = G1d with K439E) with one substitution, EU numbering; also called B3 variant S298G; copies: 2 + 2
B10: GpH7-B3 P271W / GpL16-k0 (antibody, human IgG1)
heavy: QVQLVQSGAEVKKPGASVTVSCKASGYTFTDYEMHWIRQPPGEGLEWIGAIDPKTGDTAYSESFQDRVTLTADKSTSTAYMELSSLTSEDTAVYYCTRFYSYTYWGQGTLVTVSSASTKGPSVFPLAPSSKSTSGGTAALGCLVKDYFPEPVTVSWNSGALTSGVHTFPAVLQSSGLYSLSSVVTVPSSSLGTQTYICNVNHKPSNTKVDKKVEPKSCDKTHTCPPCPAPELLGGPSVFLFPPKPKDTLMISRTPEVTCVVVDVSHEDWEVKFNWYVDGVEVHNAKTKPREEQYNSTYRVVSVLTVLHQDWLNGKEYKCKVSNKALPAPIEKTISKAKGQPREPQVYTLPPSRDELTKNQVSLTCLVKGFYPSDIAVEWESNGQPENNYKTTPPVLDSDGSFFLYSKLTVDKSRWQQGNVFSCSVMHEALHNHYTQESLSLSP
light: DIVMTQSPLSLPVTPGEPASISCQASESLVHSNRNTYLHWYLQKPGQSPQLLIYKVSNRFSGVPDRFSGSGSGTDFTLKISRVEAEDVGVYYCSQNTHVPPTFGQGTKVEIE
notes: B3 variant: anti-glypican-3 IgG1 (constant region B3 = G1d with K439E) with one substitution, EU numbering; also called B3 variant P271W; copies: 2 + 2
B11: GpH7-B3 P271F / GpL16-k0 (antibody, human IgG1)
heavy: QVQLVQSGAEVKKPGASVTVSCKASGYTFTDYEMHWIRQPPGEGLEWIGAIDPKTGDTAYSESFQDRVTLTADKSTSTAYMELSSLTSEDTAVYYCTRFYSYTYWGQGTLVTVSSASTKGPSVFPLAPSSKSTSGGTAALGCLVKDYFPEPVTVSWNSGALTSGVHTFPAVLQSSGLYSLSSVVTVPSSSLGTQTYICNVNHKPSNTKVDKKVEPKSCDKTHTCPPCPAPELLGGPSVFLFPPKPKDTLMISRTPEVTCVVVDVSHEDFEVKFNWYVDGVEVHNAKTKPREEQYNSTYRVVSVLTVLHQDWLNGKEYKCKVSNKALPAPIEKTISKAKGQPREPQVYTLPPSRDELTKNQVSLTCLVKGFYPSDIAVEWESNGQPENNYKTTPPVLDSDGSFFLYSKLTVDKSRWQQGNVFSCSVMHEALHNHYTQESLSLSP
light: DIVMTQSPLSLPVTPGEPASISCQASESLVHSNRNTYLHWYLQKPGQSPQLLIYKVSNRFSGVPDRFSGSGSGTDFTLKISRVEAEDVGVYYCSQNTHVPPTFGQGTKVEIE
notes: B3 variant: anti-glypican-3 IgG1 (constant region B3 = G1d with K439E) with one substitution, EU numbering; also called B3 variant P271F; copies: 2 + 2
B12: GpH7-B3 P271Y / GpL16-k0 (antibody, human IgG1)
heavy: not shown
light: DIVMTQSPLSLPVTPGEPASISCQASESLVHSNRNTYLHWYLQKPGQSPQLLIYKVSNRFSGVPDRFSGSGSGTDFTLKISRVEAEDVGVYYCSQNTHVPPTFGQGTKVEIE
notes: B3 variant: anti-glypican-3 IgG1 (constant region B3 = G1d with K439E) with one substitution, EU numbering; also called B3 variant P271Y; copies: 2 + 2
B13: GpH7-B3 Y296R / GpL16-k0 (antibody, human IgG1)
heavy: not shown
light: DIVMTQSPLSLPVTPGEPASISCQASESLVHSNRNTYLHWYLQKPGQSPQLLIYKVSNRFSGVPDRFSGSGSGTDFTLKISRVEAEDVGVYYCSQNTHVPPTFGQGTKVEIE
notes: B3 variant: anti-glypican-3 IgG1 (constant region B3 = G1d with K439E) with one substitution, EU numbering; also called B3 variant Y296R; copies: 2 + 2
B14: GpH7-B3 Q295D / GpL16-k0 (antibody, human IgG1)
heavy: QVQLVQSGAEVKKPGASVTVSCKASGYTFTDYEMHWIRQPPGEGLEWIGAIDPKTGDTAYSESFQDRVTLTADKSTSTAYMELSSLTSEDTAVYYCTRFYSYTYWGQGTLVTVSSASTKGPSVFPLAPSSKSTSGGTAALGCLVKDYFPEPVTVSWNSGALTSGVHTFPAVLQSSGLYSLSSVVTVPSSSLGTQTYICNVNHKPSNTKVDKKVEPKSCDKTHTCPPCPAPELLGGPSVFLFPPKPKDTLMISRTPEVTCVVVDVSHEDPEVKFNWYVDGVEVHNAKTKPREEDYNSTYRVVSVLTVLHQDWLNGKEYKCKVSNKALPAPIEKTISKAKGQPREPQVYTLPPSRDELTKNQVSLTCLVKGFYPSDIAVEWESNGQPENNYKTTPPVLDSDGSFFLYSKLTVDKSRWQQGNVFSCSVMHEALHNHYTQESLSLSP
light: DIVMTQSPLSLPVTPGEPASISCQASESLVHSNRNTYLHWYLQKPGQSPQLLIYKVSNRFSGVPDRFSGSGSGTDFTLKISRVEAEDVGVYYCSQNTHVPPTFGQGTKVEIE
notes: B3 variant: anti-glypican-3 IgG1 (constant region B3 = G1d with K439E) with one substitution, EU numbering; also called B3 variant Q295D; copies: 2 + 2
B15: GpH7-B3 Y300R / GpL16-k0 (antibody, human IgG1)
heavy: not shown
light: DIVMTQSPLSLPVTPGEPASISCQASESLVHSNRNTYLHWYLQKPGQSPQLLIYKVSNRFSGVPDRFSGSGSGTDFTLKISRVEAEDVGVYYCSQNTHVPPTFGQGTKVEIE
notes: B3 variant: anti-glypican-3 IgG1 (constant region B3 = G1d with K439E) with one substitution, EU numbering; also called B3 variant Y300R; copies: 2 + 2

Target: T1, human FcγRIIIa(F) (human, UniProt P08637 17-208, limits assumed)
T1 construct: also called FcgRIIIaF; FcγRIIIa allotype F158
T1 sequence (P08637 other isoform, or with tags, fused parts or gaps limits assumed): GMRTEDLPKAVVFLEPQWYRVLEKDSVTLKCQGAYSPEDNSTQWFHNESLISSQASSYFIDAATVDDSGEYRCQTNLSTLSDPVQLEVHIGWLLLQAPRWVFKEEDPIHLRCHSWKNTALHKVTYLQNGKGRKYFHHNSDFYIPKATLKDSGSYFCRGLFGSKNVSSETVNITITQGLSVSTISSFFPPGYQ
Experiment: SPR (Biacore), antibody captured, FcγR as analyte
Description: Interaction between each modified antibody and Fcγ receptor prepared in the manner described above was analyzed using the Biacore T100 (GE Healthcare), Biacore T200 (GE Healthcare), Biacore A100 or Biacore 4000. HBS-EP+ (GE Healthcare) was used for the running buffer, and measurements were carried out at 25° C. The chips used were chips in which antigen peptides, Protein A (Thermo Scientific), Protein A/G (Thermo Scientific) or Protein L (ACTIGEN or BioVision) were immobilized on the Series S Sensor Chip CM5 (GE Healthcare) or Series S Sensor Chip CM4 (GE Healthcare) by amine coupling, or chips in which preliminarily biotinylated antigen peptides were allowed to interact and then immobilized on the Series S Sensor Chip SA (certified) (GE Healthcare). The target antibodies were captured on these sensor chips, Fcγ receptor diluted with the running buffer was allowed to interact, followed by measurement of the amount of bound antibody. The amounts bound were compared between antibodies. However, since the amount of Fcγ receptor bound depends on the amount of captured antibody, the values used for comparison were first corrected by dividing the amount of Fcγ receptor bound by the captured amount of each antibody. Through reaction with 10 mM glycine-HCl at pH 1.5, the sensor chips were regenerated by washing off antibody captured on the sensor chips and used repeatedly.
Binding strength was evaluated according to the following method based on the results of analyzing the interaction with each FcγR. […] That value was then further multiplied by 100, and the resulting value was used as an indicator of relative binding activity to each FcγR.

Point of comparison: B10, “relative binding activity (amount bound / amount bound by GpH7-B3/GpL16-k0 x100)” value 57 % of GpH7-B3/GpL16-k0. Against it:
- B1 — lower, 11 % of GpH7-B3/GpL16-k0
- B2 — lower, 19 % of GpH7-B3/GpL16-k0
- B3 — lower, 50 % of GpH7-B3/GpL16-k0
- B4 — lower, 10 % of GpH7-B3/GpL16-k0
- B5 — lower, 21 % of GpH7-B3/GpL16-k0
- B6 — lower, 20 % of GpH7-B3/GpL16-k0
- B7 — lower, -1 % of GpH7-B3/GpL16-k0
- B8 — higher, 62 % of GpH7-B3/GpL16-k0
- B9 — higher, 59 % of GpH7-B3/GpL16-k0
- B11 — lower, 39 % of GpH7-B3/GpL16-k0
- B12 — lower, 33 % of GpH7-B3/GpL16-k0
- B13 — lower, 38 % of GpH7-B3/GpL16-k0
- B14 — higher, 64 % of GpH7-B3/GpL16-k0
- B15 — lower, 12 % of GpH7-B3/GpL16-k0
